# T1: plasma-derived human FVII (Enzyme Research Labs) (human, UniProt P08709 61-466)
# T1 construct: mature; also called pdFVII; Standard FVII
# T1 sequence (looked up): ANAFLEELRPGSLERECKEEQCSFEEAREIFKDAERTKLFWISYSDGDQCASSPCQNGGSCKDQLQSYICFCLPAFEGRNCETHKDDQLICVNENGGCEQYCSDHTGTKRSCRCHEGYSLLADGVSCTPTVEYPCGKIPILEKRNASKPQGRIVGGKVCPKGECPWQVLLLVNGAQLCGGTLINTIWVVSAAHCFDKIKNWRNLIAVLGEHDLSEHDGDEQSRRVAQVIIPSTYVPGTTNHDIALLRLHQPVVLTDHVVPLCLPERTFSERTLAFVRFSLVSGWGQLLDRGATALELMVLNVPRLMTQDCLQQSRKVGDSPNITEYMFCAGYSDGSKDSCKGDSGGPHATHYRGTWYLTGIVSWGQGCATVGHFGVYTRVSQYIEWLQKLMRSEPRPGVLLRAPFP
# Tests used:
# [1] = molecular target: T1, plasma-derived human FVII (Enzyme …); test: surface plasmon resonance (BIAcore); sTF captured by immobilized anti-TF antibody, FVII injected
# Description: An anti-TF antibody was immobilized on the BIAcore flow cell at high density and subsequently reacted with recombinant sTF. […] Data from reference cells containing the same amount of anti-TF antibody but no sTF were subtracted to correct for non-specific binding. […]
# [2] = molecular target: T2, monoclonal antibody 231-7; test: competitive ELISA; rFVIIa competes with biotinylated plasma-derived FVII for adsorbed MoAb 231-7
# T2 construct: Conformation-sensitive antibody to the FVII EGF-1 domain; also called MoAb231-7
# Method: Following four washes with TBS-T w/o BSA containing 1 M NaCl, 100 μl streptavidin-alkaline phosphatase (1:25,000 dilution in TBS-T+BSA) was added for 1 hr, RT. After an additional four washes with TBS-T w/o BSA containing 1M NaCl, the colourimetric reaction was developed with 100 μl of 1 mg/ml p-nitrophenylphosphate in diethanolamine buffer (10% diethanolamine, 0.5 mM MgCl₂, pH 9.8). The reaction was stopped after 60 minutes by the addition of 25 μl of 0.5M EDTA to each well.
Binder,Kd [1] [nM],Relative Increase in Affinity (relative to rFVIIa (wt)) [2] [fold]
"recombinant soluble human tissue factor (receptor, UniProt P13726 33-251, looked up, extracellular domain; It was captured on the BIAcore chip by an immobilized anti-TF antibody; also called sTF; soluble human TF) SGTTNTVAAYNLTWKSTNFKTILEWEPKPVNQVYTVQISTKSGDWKSKCFYTTDTECDLTDEIVKDVKQTYLARVFSYPAGNVESTGSAGEPLYENSPEFTPYLETNLGQPTIQSFEQVGTKVNVTVEDERTLVRRNNTFLSLRDVFGKDLIYTLYYWKSSSSGKKTAKTNTNEFLIDVDKGENYCFSVQAVIPSRTVNRKSTDSPVECMGQEKGEFRE",29,–
"rFVIIa(wt)-FFR (enzyme, human, active site covalently modified with the peptide chloromethylketone FFRck, range 1-152;range 153-406; also called rFVIIa(wt)-FFRck; rFVIIai(wt)) chain 1: ANAFLEELRPGSLERECKEEQCSFEEAREIFKDAERTKLFWISYSDGDQCASSPCQNGGSCKDQLQSYICFCLPAFEGRNCETHKDDQLICVNENGGCEQYCSDHTGTKRSCRCHEGYSLLADGVSCTPTVEYPCGKIPILEKRNASKPQGR chain 2: IVGGKVCPKGECPWQVLLLVNGAQLCGGTLINTIWVVSAAHCFDKIKNWRNLIAVLGEHDLSEHDGDEQSRRVAQVIIPSTYVPGTTNHDIALLRLHQPVVLTDHVVPLCLPERTFSERTLAFVRFSLVSGWGQLLDRGATALELMVLNVPRLMTQDCLQQSRKVGDSPNITEYMFCAGYSDGSKDSCKGDSGGPHATHYRGTWYLTGIVSWGQGCATVGHFGVYTRVSQYIEWLQKLMRSEPRPGVLLRAPFP",–,1.4
"rFVIIa(wt)-DEGR (enzyme, human, active site covalently modified with the peptide chloromethylketone DEGRck, range 1-152;range 153-406; also called rFVIIa(wt)-DEGRck; rFVIIai(wt)) chain 1: ANAFLEELRPGSLERECKEEQCSFEEAREIFKDAERTKLFWISYSDGDQCASSPCQNGGSCKDQLQSYICFCLPAFEGRNCETHKDDQLICVNENGGCEQYCSDHTGTKRSCRCHEGYSLLADGVSCTPTVEYPCGKIPILEKRNASKPQGR chain 2: IVGGKVCPKGECPWQVLLLVNGAQLCGGTLINTIWVVSAAHCFDKIKNWRNLIAVLGEHDLSEHDGDEQSRRVAQVIIPSTYVPGTTNHDIALLRLHQPVVLTDHVVPLCLPERTFSERTLAFVRFSLVSGWGQLLDRGATALELMVLNVPRLMTQDCLQQSRKVGDSPNITEYMFCAGYSDGSKDSCKGDSGGPHATHYRGTWYLTGIVSWGQGCATVGHFGVYTRVSQYIEWLQKLMRSEPRPGVLLRAPFP",–,2.8

# From patent US20070207960A1 (published 2007)
